# Measured values published in the supplement of paper PMC7125110.
# ± gives the standard error. Variants at the floor of the assay were thinned out.
# B1: glmS ribozyme (parent)
# chain: AUAAAAGCGCCAGAACUACAGAAAUGUAGUUGACGAGGAGGAGGUUUAUCGAAUUUUCGGCGGAUGCCUCCAAA
# What was measured:
# Conditions in all cases: with glucosamine-6-phosphate
# glucosamine-6-phosphate [1] = variants of: B1; assay: self-cleavage kobs at 160 uM GlcN6P; higher = faster cleavage; RNA array
# Method in brief: (§1)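 Ribozyme variants carrying barcodes were transcribed in situ on sequenced MiSeq chips by E. coli RNA polymerase and tracked at 37 °C with a hybridised Cy3 probe. They were exposed to 40 μM to 10 mM glucosamine-6-phosphate in HEPES/KCl/Mg(OAc)2 buffer. kobs came from exponential decay fits of normalised per-tile medians, and kcat and KM from weighted Michaelis–Menten fits.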
# glucosamine-6-phosphate [2] = variants of: B1; assay: self-cleavage kobs at 640 uM GlcN6P; higher = faster cleavage; RNA array
# Method in brief: as §1
# glucosamine-6-phosphate [3] = variants of: B1; assay: self-cleavage kobs at 2500 uM GlcN6P; higher = faster cleavage; RNA array
# Method in brief: as §1
# glucosamine-6-phosphate [4] = variants of: B1; assay: self-cleavage kobs at 10000 uM GlcN6P; higher = faster cleavage; RNA array
# Method in brief: as §1
Variant,self-cleavage kobs at 160 uM GlcN6P (glucosamine-6-phosphate [1]) [s⁻¹],self-cleavage kobs at 640 uM GlcN6P (glucosamine-6-phosphate [2]) [s⁻¹],self-cleavage kobs at 2500 uM GlcN6P (glucosamine-6-phosphate [3]) [s⁻¹],self-cleavage kobs at 10000 uM GlcN6P (glucosamine-6-phosphate [4]) [s⁻¹]
AUAAAAGCGCCAGAGGUACAGAAAUGUAGUUGACGAGGAGGGGGUUUAUCGAAUUUUCGGCGGAUGGCUCCAAA [A15G C16G A42G C67G],7.28e-05 ± 3.4e-05,0.000348 ± 6.7e-05,0.000115 ± 3.5e-05,0.000521 ± 0.00022
AUAAAAGCGCCAGGGCUACAGAAAUGUAGUUGACGAGGAGGAGGUUUAUCGAAUGUUCGGCGGGUGCCUCCAAA [A14G A15G U55G A64G],0.00524 ± 0.0017,0.00775 ± 0.002,–,–
AUAAAAGCGCCAGAAAUACAGAAAUGUAGUCGACGAGGAGGAGGUUUAUCGAAUUGUCGGCGGAUGCCUCCAAA [C16A U31C U56G],3.96e-05 ± 1.5e-05,9.16e-05 ± 1.9e-05,0.000266 ± 5.4e-05,–
AUAAAAGCGCCAGAACUACAGAAAUGUAGUUGACGAGGAGGAGGUUUCUCCAAUUUUCGGCGGAUGCCUCCAAA [A48C G51C],< 1e-05,< 1e-05,–,–
AUAAAAGCACCAGAACUACAGAAAUGUAGUUGACGAGGAGGAGGUGUAUCGAAUUUUCGGCGGAUGCCUCCAAA [G9A U46G],< 1e-05,< 1e-05,–,< 1e-05
AUAAAAGCGUCAGAACUACAGAAAUGUAGCUGACGAGGAGGAUGUUUAUCUAAUCUUCGGCGGAUGCCCCCAAA [C10U U30C G43U G51U U55C U69C],< 1e-05,< 1e-05,< 1e-05,< 1e-05
AUAAAAGCGCCAGAACUACAGAAAUGUAGUUGACGAGGAGGAGGGUUAUGGAAUUUUCGGCGGAUGCCUCUAAA [U45G C50G C71U],< 1e-05,–,–,–
AUAAAAGCGCCAGAAUUACAGAAAUGUAGUUGACGAGGAGGAGGUUUAUCGAAUUUUCGCCGGAUGCCUCCAAA [C16U G60C],< 1e-05,< 1e-05,< 1e-05,–
AUAAAAGCGACAGAAGUACAGAAAUGUAGUUGACGAGGAGGAGGUUUAUCGAAUUUUCGGCGGAUGCCUCCAAA [C10A C16G],< 1e-05,–,–,< 1e-05
AUAAAAGCGCCAGAACUACAGAAAUGUAGUUGACGAGGAGGAGGUUUAUCGCAUUUUCGGCGGCUGCCUCCAAA [A52C A64C],< 1e-05,< 1e-05,–,< 1e-05
AUAAAAGCGCCAGAACUACAGAAAUGUAGUUGACGAGGAGGAGGUUUAUGGAAAUUUCGGCGAAUGCCUCCAAA [C50G U54A G63A],0.000158 ± 4.4e-05,0.000109 ± 2.9e-05,8.83e-05 ± 1.8e-05,–
AUAAAAGCGCCAGAACUACAGAAAUGUAGUUGACGAGGAGGAGGUUUAUCGAAUGCUCGGCGGAUGCCUCCAAA [U55G U56C],0.000157 ± 3.8e-05,0.000938 ± 0.00021,0.00118 ± 0.00028,0.00614 ± 0.0016
AUAAAAGCGCCAGAACUACAGAAAUGUAGUUGACGAGGAGGAGUUUUAUCGAAUUUUCGGCGGAUGCCUCGAAA [G44U C71G],< 1e-05,< 1e-05,–,< 1e-05
AUAAAAGCGCCAGAACUACAGAAAUGUAGCUGACUAGGCGGAGGUUUAUCGAAUUUUCGGCGGAUGCCUCCAAA [U30C G35U A39C],< 1e-05,–,< 1e-05,–
AUAAAAGCGCCAGACCUACAGAAAUGUAGUUGAAGAGGAGGAGUUUUAUCGAAUUUUCGGCGGAUGCCUCCAAA [A15C C34A G44U],< 1e-05,< 1e-05,< 1e-05,–
AUAAAAGCGCCCGAACUACAGAAAUGUAGUUGACGAAGAGGAGGUUUAUCGGAUUUUCGGCGGAUGCCUCCAAA [A12C G37A A52G],< 1e-05,–,5.63e-05 ± 1.7e-05,–

Variant,self-cleavage kobs at 160 uM GlcN6P (glucosamine-6-phosphate [1]) [s⁻¹],self-cleavage kobs at 640 uM GlcN6P (glucosamine-6-phosphate [2]) [s⁻¹],self-cleavage kobs at 2500 uM GlcN6P (glucosamine-6-phosphate [3]) [s⁻¹],self-cleavage kobs at 10000 uM GlcN6P (glucosamine-6-phosphate [4]) [s⁻¹]
AUAAAAGCGCCAGAACUACAGAAAUGUAGUUGACGAGGAGGAAGUUUAUCGAAUUUUCGUCGGAUGCCUCCAAA [G43A G60U],< 1e-05,< 1e-05,–,< 1e-05
AUAAAAGCGCCAGUACUACAGAAAUGUAGUUGACUAGGGGGAGGUUUAUUGAAUUUUCGGCGGAUGCCUCCAAA [A14U G35U A39G C50U],< 1e-05,–,–,–
AUAAAAGCGCUAGAACUACAGAAAUGUAGUUGACGACGUGGAGGUUGAUCGAAUUUUCGGCGGAUGCCUCCAAA [C11U G37C A39U U47G],< 1e-05,–,–,–
AUAAAGGCGCCAGCACUACAGAAAUGUAGUUGACGAGGAGGGGGUUUAGCGAAUUUUCGGCGGAUGCCUCCAAA [A6G A14C A42G U49G],< 1e-05,–,–,–
AUAAAAGCCCAAGAAUUACAGAAAUGUAGUUGACCAGGAGGAGGUUUAUCGAACUUUCGGCAGAUGCCUCCAAA [G9C C11A C16U G35C U54C G62A],< 1e-05,< 1e-05,–,–
AUAAAAGCGCCAGAACUACAGAAAUGUAGUUGACGAGGAGGUGGUUUAUCGAGUUUUCGGCGGCUGCCUCCAAA [A42U A53G A64C],< 1e-05,< 1e-05,–,–
AUAAAAGCGCCAGUGCUACAGAAAUGUAGUUGACGAGGAGGAGGUUUAACGAUUUUUCGGCGGAUGCCUCCAAA [A14U A15G U49A A53U],< 1e-05,–,–,< 1e-05
AUAAAUGCGCCAGAACUACAGAAAUGUAGUGGACGAGGAGUAGGUUUAUCGAAUUUUCGGCGGCUGCCUCCAAA [A6U U31G G41U A64C],< 1e-05,< 1e-05,< 1e-05,–
AUAAAAGCGCCAGAACUACAGAAAUGUAGUUGACGAGUAGGAGGUUUAUCGAAUUUUCGGCGGAUGCAUCCAAA [G38U C68A],7.69e-05 ± 2.1e-05,0.000459 ± 0.00019,0.000238 ± 9.6e-05,–
AUAAAAGUGCCAGAACUACAGAAAUGUAGUUGACGAGGAGGAGGUUUAUCGAAUUGUCGGCGGAUGCCUCCAAA [C8U U56G],< 1e-05,< 1e-05,< 1e-05,–
AUAAAAGCGCCAGAACUACAGAAAUGUAGGCGUCGAGGAGGAGGAUUAUCGAAUAUUCGGCGGAUGCCUCCAAA [U30G U31C A33U U45A U55A],< 1e-05,–,–,–
AUAAAAGCGCCACAACUACAGAAAUGUAGUUGCCGAGGAGUAGGUUUAUCGAAUUCUCGGCGGAUGCCUCCAAA [G13C A33C G41U U56C],< 1e-05,–,< 1e-05,–
AUAAAAGGGCCAGAACUACAGAAAUGUAGUUGACGAGGAGGAGGUUUAUCGAAUUUUCGGCCGAUGCCUCCAAA [C8G G62C],< 1e-05,–,–,3.7e-05 ± 8.1e-06
AUAAAUGCGCCAGAACUACAGAAAUGUAGUUGACGAGCAGGAGGUUUAUCGAAUUUUCGGCGGUUUCCUCCAAA [A6U G38C A64U G66U],< 1e-05,< 1e-05,< 1e-05,–
AUAAAAGCGCCCGAACUACAGAAAUGUAGUUGACUAGGAGUAGGUUUAUCGAAUUUUCGGCGGAUGCCUCCAAA [A12C G35U G41U],< 1e-05,< 1e-05,–,–
